Here are results for one molecule from US20120263644A1.

Experiment [1] has as its target leukocyte function antigen-1 (LFA-1), composed of CD11a and CD18, on human white blood cells (human) (UniProt P20701). The experiment in a line: cell-based or functional assay.
Experiment [2] deals with constitutively active LFA-1 expressed on Jurkat T-cell line J-β2.7/LFA-1Δ. Briefly: cell-based or functional assay.

Chain of leukocyte function antigen-1 (LFA-1), composed of CD11a and CD18, on human white blood cells (human) (P20701 26-1170, chain 1 of 2): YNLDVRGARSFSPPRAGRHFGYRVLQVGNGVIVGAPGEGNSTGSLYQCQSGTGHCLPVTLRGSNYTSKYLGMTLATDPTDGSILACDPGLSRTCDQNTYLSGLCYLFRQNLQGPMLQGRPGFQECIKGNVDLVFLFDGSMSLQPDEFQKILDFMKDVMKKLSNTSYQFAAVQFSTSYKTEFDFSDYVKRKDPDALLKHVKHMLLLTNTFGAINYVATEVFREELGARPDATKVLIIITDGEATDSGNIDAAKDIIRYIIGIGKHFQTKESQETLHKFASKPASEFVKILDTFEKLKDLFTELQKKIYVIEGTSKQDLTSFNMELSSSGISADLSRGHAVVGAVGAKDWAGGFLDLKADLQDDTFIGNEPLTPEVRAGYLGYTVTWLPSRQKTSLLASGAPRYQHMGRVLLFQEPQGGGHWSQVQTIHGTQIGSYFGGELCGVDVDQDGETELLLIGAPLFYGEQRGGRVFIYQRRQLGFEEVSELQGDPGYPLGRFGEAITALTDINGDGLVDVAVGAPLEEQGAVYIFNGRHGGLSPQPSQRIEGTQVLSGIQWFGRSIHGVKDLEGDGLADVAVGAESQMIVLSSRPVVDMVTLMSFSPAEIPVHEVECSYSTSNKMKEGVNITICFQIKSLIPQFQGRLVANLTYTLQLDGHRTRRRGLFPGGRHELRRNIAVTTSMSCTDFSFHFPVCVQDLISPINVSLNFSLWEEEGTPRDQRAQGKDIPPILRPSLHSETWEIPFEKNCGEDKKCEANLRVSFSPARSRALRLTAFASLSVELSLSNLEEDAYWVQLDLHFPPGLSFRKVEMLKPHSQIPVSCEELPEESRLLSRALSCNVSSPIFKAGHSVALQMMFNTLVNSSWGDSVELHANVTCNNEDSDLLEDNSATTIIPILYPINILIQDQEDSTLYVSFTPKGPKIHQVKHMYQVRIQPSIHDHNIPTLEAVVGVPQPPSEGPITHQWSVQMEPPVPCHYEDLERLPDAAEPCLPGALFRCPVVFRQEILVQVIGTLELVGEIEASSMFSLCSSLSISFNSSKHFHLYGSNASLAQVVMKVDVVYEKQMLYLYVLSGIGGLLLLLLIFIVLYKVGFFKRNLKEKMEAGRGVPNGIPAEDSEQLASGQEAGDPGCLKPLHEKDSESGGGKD
Chain of leukocyte function antigen-1 (LFA-1), composed of CD11a and CD18, on human white blood cells (human) (P05107 23-769, chain 2 of 2, further chain): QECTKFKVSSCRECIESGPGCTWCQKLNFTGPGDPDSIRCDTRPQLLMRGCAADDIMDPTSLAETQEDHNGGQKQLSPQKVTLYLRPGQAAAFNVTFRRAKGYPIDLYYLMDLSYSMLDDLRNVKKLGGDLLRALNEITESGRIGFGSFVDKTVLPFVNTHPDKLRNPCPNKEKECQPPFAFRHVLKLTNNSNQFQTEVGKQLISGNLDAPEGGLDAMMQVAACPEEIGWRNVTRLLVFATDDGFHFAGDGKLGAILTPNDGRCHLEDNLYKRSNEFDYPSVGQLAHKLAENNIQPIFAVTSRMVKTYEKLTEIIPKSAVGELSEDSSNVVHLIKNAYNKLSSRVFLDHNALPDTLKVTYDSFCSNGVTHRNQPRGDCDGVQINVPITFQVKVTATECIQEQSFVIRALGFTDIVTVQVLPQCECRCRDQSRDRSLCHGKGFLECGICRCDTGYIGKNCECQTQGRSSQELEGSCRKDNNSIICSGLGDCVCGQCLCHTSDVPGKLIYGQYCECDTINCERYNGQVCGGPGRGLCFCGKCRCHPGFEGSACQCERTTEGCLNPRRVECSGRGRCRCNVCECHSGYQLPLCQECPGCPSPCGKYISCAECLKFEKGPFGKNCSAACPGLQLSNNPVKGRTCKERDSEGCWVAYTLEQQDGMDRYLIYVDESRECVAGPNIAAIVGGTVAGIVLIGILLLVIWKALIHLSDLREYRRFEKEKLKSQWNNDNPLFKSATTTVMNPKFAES

B1: leukotoxin (LtxA) of Aggregatibacter actinomycetemcomitans strain NJ4500 (protein)
chain: MATTSLLNTKQQAAQFANSVADRAKENIDAAKEQLQKALDKLGKTGKKLTLYIKNYKKGNGLTALIKAAQKLGIEVYHEGKDGPALTNGILNTGKKLLGLTERGLTLFAPELDKWIQGNKHLSNSVGSTGNLTKAIDKVQSVLGTLQAFLNTAFSGMDLDALIKARQNGKNVTDVQLAKASLNLINELIGTISSITNNVDTFSKQLNKLGEALGQVKHFGSFGDKLKNLPKLGNLGKGLGALSGVLSAISAALLLANKDADTATKAAAAAELTNKVLGNIGKAITQYLIAQRAAAGLSTTGPVAGLIASVVSLAISPLSFLGIAKQFDRARMLEEYSKRFKKFGYNGDSLLGQFYKNTGIADAAITTINTVLSAIAAGVGAASAGSLVGAPIGLLVSAITSLISGILDASKQAVFEHIANQLADKIKAWENKYGKNYFENGYDARHSAFLEDSLKLFNELREKYKTENILSITQQGWDQRIGELAGITRNGDRIQSGKAYVDYLKKGEELAKHSDKFTKQILDPIKGNIDLSGIKGSTTLTFLNPLLTAGKEERKTRQSGKYEFITELKVKGRTDWKVKGVPNSNGVYDFSNLIQHAVTRDNKVLEARLIANLGAKDDYVFVGSGSTIVNAGDGYDVVDYSKGRTGALTIDGRNATKAGQYKVERDLSGTQVLQETVSKQETKRGKVTDLLEYRNYKLDYYYTNKGFKAHDELNSVEEIIGSTLRDKFYGSKFNDVFHGHDGDDLIYGYDGDDRLYGDNGNDEIHGGQGNDKLYGGAGNDRLFGEYGNNYLDGGEGDDHLEGGNGSDILRGGSGNDKLFGNQGDDLLDGGEGDDQLAGGEGNDIYVYRKEYGHHTITEHSGDKDKLSLANINLKDVSFERNGNDLLLKTNNRTAVTFKGWFSKPNSSAGLDEYQRKLLEYAPEKDRARLKRQFELQRGKVDKSLNNKVEEIIGKDGERITSQDIDNLFDKSGNKKTISPQELAGLIKNKGKSSSLMSSSRSSSMLTQKSGLSNDISRIISATSGFGSSGKALSASPLQTNNNFNSYANSLATTAA
Consider B1, for which, in experiment [1], the 50% effective dose (ED50) of LtxA against gp120-treated CD4 T cells, cell viability by cellular ATP after 20 hrs is 0.367 µg/mL; the ED50 of LtxA against mutant gp120-treated CD4 T cells, cell viability by cellular ATP after 20 hrs was 0.44 µg/mL; the ED50 of LtxA against untreated CD4 T cells, cell viability by cellular ATP after 20 hrs amounted to 0.437 µg/mL; the IC50 of inhibition of proliferation of Jurkat cells after 72 hours (CellTiter Glo) stood at 0.25 µg/mL. In experiment [1], this molecule came in with a percent of CD3+ T lymphocytes expressing high levels of LFA-1 after LtxA treatment of PBMCs (approximately 11% before), flow cytometry of 0.4%; a percent of CD4 T cells activated by surface-bound anti-CD3 and anti-CD28 killed by LtxA at 390 and 780 ng/ml of 100%; a percent of untreated CD4 T cells susceptible to LtxA at 390 and 780 ng/ml of 50%. In addition, the sensitivity to LtxA-mediated toxicity, J-β2.7/LFA-1Δ cells against J-β2.7/LFA-1 wt cells in experiment [2] turned out to be 10 times.
